Laboratory results as given in patent US7387779B2, “Anti-angiogenic proteins and fragments and methods of use thereof” (Beth Israel Deaconess Medical Center, priority 1998, dated 2008).

Legend:
[1] = system: Caspase-3 in C-PAE cells; assay: Caspase-3 assay; format: cell-based, bovine; conditions: 20 μg/ml Tumstatin; TNF-α positive control
[2] = system: A-498 (renal carcinoma) cells; assay: Proliferation of control cells, 3H-thymidine incorporation; format: cell-based; conditions: endostatin 0.1-10 μg/ml
Protocol: C-PAE cells were grown to confluence in DMEM with 10% fetal calf serum (FCS) and kept contact inhibited for 48 hours. Control cells were 786-O (renal carcinoma) cells, PC-3 cells, HPEC cells, and A-498 (renal carcinoma) cells. Cells were harvested with trypsinization (Life Technologies/Gibco BRL, Gaithersburg, Md., USA) at 37° C. for five minutes. A suspension of 12,500 cells in DMEM with 1% FCS was added to each well of a 24-well plate coated with 10 μg/ml fibronectin. The cells were incubated for 24 hours at 37° C. with 5% CO2 and 95% humidity. Medium was removed and replaced with DMEM containing 0.5% FCS and 3 ng/ml bFGF (R&D Systems, Minneapolis, Minn., USA). Unstimulated controls received no bFGF. Cells were treated with concentrations of Arresten or endostatin ranging from 0.01 to 50 μg/ml. All wells received 1 μCurie of ^3H-thymidine at the time of treatment. After 24 hours, medium was removed and the wells were washed with PBS. Cells were extracted with 1N NaOH and added to a scintillation vial containing 4 ml of ScintiVerse II (Fisher Scientific, Pittsburgh, Pa., USA) solution. Thymidine incorporation was measured using a scintillation counter. The results are shown in FIGS. 3A and 3B, which are a pair of graphs showing incorporation of ^3H-thymidine into C-PAE cells treated with varying amounts of Arresten (FIG. 3A) or endostatin (FIG. 3B). […]

[3] = system: HUVECs; assay: Total protein synthesis, 35S-methionine incorporation; format: cell-based, human; conditions: 4.5 μM; 24 hours of serum stimulation; rapamycin 100 ng/ml
Protocol: Primary human renal epithelial cells (HRE) were purchased from Clonetics (San Diego, Calif., USA) and were maintained in REGM (Clonetics Corp.). Other cell lines were obtained and maintained as described above. Cells were serum-starved for 24 hrs (0.5% FCS), stimulated with 10% FCS in the presence of T3 peptide, Tumstatin-44-131, endostatin or rapamycin for 12-24 hours. After pre-incubation of cells in methionine-free media for 1 hour, cells were labeled with ^35S-methionine for 1 hour and incorporation of radioactivity into trichloracetic acid precipitates was analyzed (Sudhakar, A. et al., 2000, Biochem. 39:12929-38; Maeshima, Y. et al., 1996, J. Amer. Soc. Nephrol. 7:2219-29). ANOVA with a one-tailed Student's t test was used to identify significant differences in multiple comparisons in the present study. A level of P<0.05 was considered statistically significant.

[4] = system: bovine endothelial cells; assay: Cap-dependent (LUC) / cap-independent (CAT) translation reporter; format: cell-based; conditions: 4.5 μM; 21 hours
[5] = system: MDA-MB435 tumors; assay: MDA-MB435 breast cancer carcinoma orthotopic model (Example 41); format: in vivo; conditions: 5 mg or 20 mg per kilogram
[6] = system: PC-3 tumors; assay: PC-3 prostate tumor xenograft in SCID mice; format: in vivo; conditions: 10 mg/kg
Protocol: Human prostate adenocarcinoma cells (PC-3 cells) were harvested from culture and 2 million cells in sterile PBS were injected subcutaneously into 7- to 9-week-old male SCID mice. The tumors grew for approximately 4 weeks after which animals were divided into groups of 4 mice. […] The control group received equal volumes of PBS each day. At the start of treatment (day 0), the tumors ranged in volume from 88 mm^3 to 135 mm^3 for the control mice, and 108 mm^3 to 149 mm^3 for the Canstatin-treated mice. Each group contained five mice. […] Canstatin-treated (▪) tumors increased only marginally in size relative to controls (□).

[7] = system: DU-145 cells; assay: MTT cell viability assay; format: cell-based; conditions: 0-50 μg/ml
Protocol: Cell viability was measured by MTT assay, as described above.
The effects of Tumstatin-44-131 and Tum-5-125-C-A on cell viability of C-PAE cells were not seen in control PC-3 and DU-145 cells, as shown in FIGS. 52C and 52D. […] The activity of Tumstatin-44-131 is therefore specific to endothelial cells.

B1: Tumstatin: NC1 domain of the α3 chain of type IV collagen, residues 1-244 (SEQ ID NO:10) (protein, listed as Homo sapiens)
chain: GLKGKRGDSGSPATWTTRGFVFTRHSQTTAIPSCPEGTVPLYSGFSFLFVQGNQRAHGQDLGTLGSCLQRFTTMPFLFCNVNDVCNFASRNDYSYWLSTPALMPMNMAPITGRALEPYISRCTVCEGPAIAIAVHSQTTDIPPCPHGWISLWKGFSFIMFTSAGSEGTGQALASPGSCLEEFRASPFLECHGRGTCNYYSNSYSFWLASLNPERMFRKPIPSTVKAGELEKIISRCQVCMKKRH
For B1, which “fold increase in Caspase-3 activity” value [1] is on record?
Its value is 1.6 fold.

B2: endostatin: tumor associated angiogenesis inhibitor used as comparator (protein, UniProt P39060 1572-1754, looked up)
Endostatin: HSHRDFQPVLHLVALNSPLSGGMRGIRGADFQCFQQARAVGLAGTFRAFLSSRLQDLYSIVRRADRAAVPIVNLKDELLFPSWEALFSGSEGPLKPGARIFSFDGKDVLRHPTWPQKSVWHGSDPNGRRLTESYCETWRTEAPSATGQASSLLGGRLLGQSAASCHHAYIVLCIENSFMTASK
modifications: Endostatin
B2 was tested. Which effect on proliferation [2] did it give?
The effect on proliferation was “did not inhibit”.

What about the “inhibition of protein synthesis” value [3] of the same molecule?
The value was “did not inhibit protein synthesis”.

And the “decrease of cap-dependent translation of LUC” value [4]?
Its value is “did not affect cap-dependent translation”.

B3: Tum-1: residues 54 to 244 of Tumstatin, lacking the N-terminal 53 amino acids (SEQ ID NO:22) (protein)
chain: QRAHGQDLGTLGSCLQRFTTMPFLFCNVNDVCNFASRNDYSYWLSTPALMPMNMAPITGRALEPYISRCTVCEGPAIAIAVHSQTTDIPPCPHGWISLWKGFSFIMFTSAGSEGTGQALASPGSCLEEFRASPFLECHGRGTCNYYSNSYSFWLASLNPERMFRKPIPSTVKAGELEKIISRCQVCMKKRH
modifications: Tum-1 (Tumstatin N-53) (amino acids 54-244 of SEQ ID NO10)
B3 was tested. Which anti-tumor activity [5] did it give?
Its anti-tumor activity is “substantial anti-tumor activity”.

B4: Canstatin: NC1 domain of the α2 chain of Type IV collagen (SEQ ID NO:6) (protein, listed as Homo sapiens)
chain: VSIGYLLVKHSQTDQEPMCPVGMNKLWSGYSLLYFEGQEKAHNQDLGLAGSCLARFSTMPFLYCNPGDVCYYASRNDKSYWLSTTAPLPMMPVAEDEIKPYISRCSVCEAPAIAIAVHSQDVSIPHCPAGWRSLWIGYSFLMHTAAGDEGGGQSLVSPGSCLEDFRATPFIECNGGRGTCHYYANKYSFWLTTIPEQSFQGSPSADTLKAGLIRTHISRCQVCMKNL
With B4 as the molecule, how does the “fractional tumor volume as % of vehicle only-injected mice” value [6] read?
The value was 55%.

What about the “fractional tumor volume, fold less than vehicle” value [6] of the same molecule?
The value was 1.8 fold.

B5: Tumstatin-44-131: residues 44 to 131 of full-length Tumstatin (SEQ ID NO:33) (protein)
chain: FSFLFVQGNQRAHGQDLGTLGSCLQRFTTMPFLFCNVNDVCNFASRNDYSYWLSTPALMPMNMAPITGRALEPYISRCTVCEGPAIAI
modifications: Tumstatin-45-132 (amino acids 45-132 of SEQ ID NO10)
Which “effect on viability of DU-145 cells” value [7] does the source give for B5 here?
The value was “not seen”.
